For this data set, the target named is GST-BLM RQC loopΔ10 (human) (UniProt P54132). The data set is described as follows: EMSA. To be noted: 5 uM protein, FP: 10 mM Tris-HCl pH 7.5, 25 mM NaCl, 1 mM DTT, 100 pM DNA, 25 C, EMSA: 10 mM Tris-HCl pH 8.0, 2 mM DTT, 1 mM EDTA, 20% glycerol, 0.2 uM DNA, 4 C, 30 min.

From publication PMC6505963 come the findings set out here.

Sequence of GST-BLM RQC loopΔ10 (human) (P54132 1068-1209, stated change not applied): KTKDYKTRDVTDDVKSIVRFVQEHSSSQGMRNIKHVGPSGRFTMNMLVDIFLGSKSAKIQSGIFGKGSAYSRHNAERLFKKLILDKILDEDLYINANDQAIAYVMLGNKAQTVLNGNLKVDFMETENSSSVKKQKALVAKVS

Turning to “CTAGAACAGCATGTCCTAGCAAGCCAGAATTC / GAATTCTGGCTTGCTAGGACATCTTTGCCCAC / GTGGGCAAAGATGTCCTAGCAATGTAATCGTC / GACGATTACATTGCTAGGACATGCTGTTCTAG [Holliday junction (HJ)]”, the binding signal (% loss of binding vs wild type) amounted to 50.
